# Patent US20240327505A1 (published 2024)
# B1: AB-009620 (antibody, V domains shown)
# VH: QITLKESGPTLVKPTQTLTLTCTFSGFSLSTSGVGVGWIRQPPGKALEWLALIYWDDDKRYSPSLKSRLTITKDTSKNQVVLTMTNMDPVDTATYYCAHHEVATVFDYWGQGTLVTVSS
# VL: QSALTQPASVSGSPGQSITISCTGTSSDVGAYNYVSWYQQHPGKAPKLMIYEVSNRPSGVSNRFSGSKSGNTASLTISGLQAEDEADYYCSSYTSSSTVFGGGTKLTVL
# Biological target: SARS-CoV-2 spike receptor-binding domain (RBD) protein (SARS-CoV-2, UniProt P0DTC2 319-541)
# Assay: BLI
binder,measurement,value
B1,Kd,5.99 nM
